Results as given in patent US9605283B2, “Microorganism modified for the production of 1,3-propanediol” (INSTITUT NATIONAL DES SCIENCES APPLIQUÉES, priority 2012, dated 2017).
Where a chain is given by its changes, count along the chain named. Names may count otherwise.

B1: Escherichia coli malate dehydrogenase Ec-Mdh variant R81A, SEQ ID No. 156 (Escherichia coli K-12; R81A) (protein)
chain: MKVAVLGAAGGIGQALALLLKTQLPSGSELSLYDIAPVTPGVAVDLSHIPTAVKIKGFSGEDATPALEGADVVLISAGVAAKPGMDRSDLFNVNAGIVKNLVQQVAKTCPKACIGIITNPVNTTVAIAAEVLKKAGVYDKNKLFGVTTLDIIRSNTFVAELKGKQPGEVEVPVIGGHSGVTILPLLSQVPGVSFTEQEVADLTKRIQNAGTEVVEAKAGGGSATLSMGQAAARFGLSLVRALQGEQGVVECAYVEGDGQYARFFSQPLLLGKNGVEERKSIGTLSAFEQNALEGMLDTLKKDIALGEEFVNK
B2: Escherichia coli malate dehydrogenase Ec-Mdh variant R81A M85Q, SEQ ID No. 158 (Escherichia coli K-12; M85Q/R81A) (protein)
chain: B1 chain with M85Q
B3: Escherichia coli malate dehydrogenase Ec-Mdh variant R81A M85E, SEQ ID No. 160 (Escherichia coli K-12; M85E/R81A) (protein)
chain: B1 chain with M85E
B4: Escherichia coli malate dehydrogenase Ec-Mdh variant R81A I12V, SEQ ID No. 162 (Escherichia coli K-12; I12V/R81A) (protein)
chain: B1 chain with I12V
B5: Escherichia coli malate dehydrogenase Ec-Mdh variant R81A M85Q I12V, SEQ ID No. 164 (Escherichia coli K-12; I12V/M85Q/R81A) (protein)
chain: B1 chain with I12V, M85Q
B6: Escherichia coli malate dehydrogenase Ec-Mdh variant R81A M85E I12V, SEQ ID No. 166 (Escherichia coli K-12; I12V/M85E/R81A) (protein)
chain: B1 chain with I12V, M85E
B7: Escherichia coli malate dehydrogenase Ec-Mdh variant R81A D86S, SEQ ID No. 170 (Escherichia coli K-12; D86S/R81A) (protein)
chain: B1 chain with D86S
B8: Lactococcus lactis (L)-lactate dehydrogenase Ll-LdhA, wild type, SEQ ID No. 120 (Lactococcus lactis subsp. lactis Il1403) (protein)
chain: MADKQRKKVILVGDGAVGSSYAFALVNQGIAQELGIVDLFKEKTQGDAEDLSHALAFTSPKKIYSADYSDASDADLVVLTSGAPQKPGETRLDLVEKNLRITKDVVTKIVASGFKGIFLVAANPVDILTYATWKFSGFPKNRVVGSGTSLDTARFRQALAEKVDVDARSIHAYIMGEHGDSEFAVWSHANVAGVKLEQWFQENDYLNEAEIVELFESVRDAAYSIIAKKGATFYGVAVALARITKAILDDEHAVLPVSVFQDGQYGVSDCYLGQPAVVGAEGVVNPIHIPLNDAEMQKMEASGAQLKAIIDEAFAKEEFASAVKN
B9: Bacillus subtilis (L)-malate dehydrogenase Bs-Mdh, wild type, SEQ ID No. 126 (Bacillus subtilis subsp. subtilis str. 168) (protein)
chain: MGNTRKKVSVIGAGFTGATTAFLIAQKELADVVLVDIPQLENPTKGKALDMLEASPVQGFDAKITGTSNYEDTAGSDIVVITAGIARKPGMSRDDLVSTNEKIMRSVTQEIVKYSPDSIIVVLTNPVDAMTYAVYKESGFPKERVIGQSGVLDTARFRTFVAEELNLSVKDVTGFVLGGHGDDMVPLVRYSYAGGIPLETLIPKERIDAIVERTRKGGGEIVNLLGNGSAYYAPAASLTEMVEAILKDQRRVLPTIAYLEGEYGYEGIYLGVPTIVGGNGLEQIIELELTDYERAQLNKSVESVKNVMKVLS
notes: hexa-His (N); made in house; host or cells: E. coli BL21 (DE3) star

Each protein was assayed on O=C(O)C[C@H](O)C(=O)O (assay: cells, lysate or membranes named). Settings: other: 37° C., pH 8, NAD.

Protein | Km
B1 | 0.7 mM
B2 | 2.2 mM
B3 | 8.6 mM
B4 | 8.5 mM
B5 | 12.5 mM
B6 | 11.2 mM
B7 | 10.3 mM

Each protein was assayed on C[C@H](O)C(=O)O (assay: purified protein, by the assay type). Settings: other: 37° C., pH 8, NAD, optionally 5 mM fructose-1,6-bisphosphate.

Protein | Km
B8 | 21.2 mM

The proteins below were run on O=C(O)C[C@H](O)C(=O)O (assay: purified protein, by the assay type). Settings: other: 37° C., pH 8, NAD.
Type: biochemical, Bacillus subtilis strain 168
Description: Ligation products were transformed into E. coli DH5α cells.

Protein | Km
B9 | 2.6 mM

What follows are proteins tested on O=C(O)[C@@H](O)CCO (assay: cells, lysate or membranes named). Settings: other: 37° C., pH 8, 10 mM NAD.
Type: biochemical, Escherichia coli
Description: Activity of the cytosolic DHB dehydrogenases (Ec-Mdh, Bs-Mdh, Ll-LdhA) was assayed by following the DHB-dependent reduction of NAD^+.
The reaction mixture contained 60 mM Hepes (pH 8), 50 mM potassium chloride, 5 mM MgCl2, 10 mM NAD, (optionally, 5 mM fructose-1,6-bisphosphate (F16bP)) (all products from Sigma), and appropriate amounts of purified enzyme or cell extract. Reactions were started by adding 50 mM (L)-2,4-dihydroxybutyrate (Rhodia).
All enzymatic assays were carried out at 37° C. in 96-well flat bottomed microtiter plates in a final volume of 250 μL.

Protein | Km
B1 | 33 mM
B2 | 29 mM
B3 | 48 mM
B5 | 19 mM
B6 | 20 mM
B7 | 28 mM
